Assay results from patent publication US20070197442A1, “Methods for the Treatment of Macular Degeneration and Related Eye Conditions” (priority 2006, published 2007).

Experiments:
LCAT = biological target: T1, LCAT (Homo sapiens, UniProt P04180); experiment: in vitro LCAT activation; format: biochemical; conditions: in the presence of lipids; % of the activity of native apoA-I
T1 sequence (P04180 25-440): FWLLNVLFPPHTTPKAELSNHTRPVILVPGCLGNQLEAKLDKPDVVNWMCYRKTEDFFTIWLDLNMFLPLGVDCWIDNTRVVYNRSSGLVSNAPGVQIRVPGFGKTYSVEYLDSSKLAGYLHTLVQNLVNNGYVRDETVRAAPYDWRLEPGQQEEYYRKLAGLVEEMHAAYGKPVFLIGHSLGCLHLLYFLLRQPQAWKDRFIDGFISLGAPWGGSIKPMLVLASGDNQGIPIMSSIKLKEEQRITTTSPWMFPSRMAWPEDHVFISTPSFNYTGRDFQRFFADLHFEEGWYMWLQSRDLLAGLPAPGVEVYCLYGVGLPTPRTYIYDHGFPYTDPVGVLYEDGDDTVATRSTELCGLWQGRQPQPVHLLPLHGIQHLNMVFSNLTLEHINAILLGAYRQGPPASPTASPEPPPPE
Excerpt: ESP24218 (SEQ ID NO:1), the peptide component of the peptide/phospholipid complex, is a 22 amino acid peptide having a helical structure and amphipathic properties designed based on the helical repeats of apoA-I. In the presence of lipids, this peptide approaches 100% of the activity of native apoA-I in in vitro LCAT activation. The peptide can be prepared by chemical synthesis using any technique known to those of skill in the art. The peptide can be prepared by the synthetic techniques described in U.S. Pat. No. 6,004,925, incorporated herein by reference in its entirety for all purposes. Typically, ESP24218 (SEQ ID NO:1) is produced by a stepwise chemical synthesis on a solid support. In preferable embodiments, all amino acids in the peptide are natural L-α-amino acids in configuration. Generally, the amino and carboxyl termini of the peptide are free. The amino acid sequence of ESP24218 (SEQ ID NO:1) is shown in FIG. 1, which is as follows: H-[…]OH. The phospholipid can be obtained from any source known to those of skill in the art. […]

[1] = test system: apo E expression in HepG2 cells; conditions: cited from earlier work

H-Pro-Val-Leu-Asp-Leu-Phe-Arg-Glu-Leu-Leu-Asn-Glu-Leu-Leu-Glu-Ala-Leu-Lys-Gln-Lys-Leu-Lys-OH [ESP24218]
activity in in vitro LCAT activation relative to native apoA-I (LCAT): ~100%

Thyroid hormone
increase of expression of apo E [1]: three
